Test results published in patent US20260184811A1 (CEREIUS, published 2026).
Like-named read-outs stand apart in the source and are kept apart here. Each block holds one binder with its values, some of them ahead of it.

Experiments:
[1] = target: T1, human HER2 receptor (human, UniProt P04626); assay: ELISA on human HER2 receptor, purified VHH titrated, A450
[2] = target: T1, human HER2 receptor; assay: ELISA specificity panel on ErbB family receptors, VHH titrated, A450
[3] = target: T1, human HER2 receptor; assay: as above; remark: listed apart in the source
[4] = target: T1, human HER2 receptor; assay: as above; remark: listed apart in the source
[5] = target: T1, human HER2 receptor; assay: ELISA on human HER2 receptor, purified VHH titrated, A450; remark: listed apart in the source
[6] = target: T1, human HER2 receptor; assay: as above; remark: listed apart in the source
[7] = target: T1, human HER2 receptor; assay: as above; remark: listed apart in the source
[8] = target: T1, human HER2 receptor; assay: as above; remark: listed apart in the source
[9] = target: T1, human HER2 receptor; assay: as above; remark: listed apart in the source
[10] = target: T1, human HER2 receptor; assay: as above; remark: listed apart in the source
[11] = target: T1, human HER2 receptor; assay: as above; remark: listed apart in the source

B1: VHH_107 (VHH)
VHH: QVQLVESGGGLVQPGGSLRLSCAASGSIFSINVMGWYRQAPGMQRQLVAIITSGGSTNYADSVKGRFTVSRDNAKNTLYLRMNSLKPEDTAVYYCATIHVRESTWYYAYWGQGTQVTVSS
notes: also called VHH ID 107
- EC50 (read off the curve) [1]: ~3 nM

B2: VHH_130 (VHH)
VHH: EVQLVESGGGLVQAGGSLRLSCAASGITFSINTMGWYRQAPGKQRELVALISSIGDTYYADSVRGRFTISRDNAKNTVYLQMNSLKPEDTAVYYCRRFRTAAQGTDYWGQGTQVTVSS
notes: also called VHH ID 130
- EC50 (read off the curve) [2]: ~1 nM
- EC50 (read off the curve) [3]: ~1 nM
- EC50 (read off the curve) [4]: ~1 nM

B5: VHH_109 (VHH)
VHH: QVQLVESGGGLVQPGGSLRLSCEASGFTFDDYGMSWVRQAPGKGLEWVSGITWNGGNPNYADSVKGRFTISRDNAKRTLYLQMNSLKAEDTAVYYCQRGYSRGYMYWGQGTQVTVSS
notes: also called VHH ID 109
- EC50 (read off the curve) [7]: ~10 nM

B6: VHH_108 (VHH)
VHH: QVQLVESGGGLVQAGGSLRLSCAASGRTFSSYAMGWFRQAPGLEREFVAAIARGGVSTGYADSVKGRFAISRDNAKNMVYLQMNSLKPEDTAVYYCATYFWGSPHYWGQGTQVTVSS
notes: also called VHH ID 108
- EC50 (read off the curve) [8]: ~6 nM

Results, then the binder that gave them:

- EC50 (read off the curve) [5]: ~1 nM
B3: VHH_129 (VHH)
VHH: EVQLVESGGGLVQAGGSLRLSCAASGITFSINTMGWYRQAPGKQRELVALISSIGDTYYADSVKGRFTISRDNAKNTVYLQMNSLKPEDTAVYYCRRFRTAAQGTDYWGQGTQVTVSS
notes: also called VHH ID 129

- EC50 (read off the curve) [6]: ~1 nM
B4: VHH_134 (VHH)
VHH: EVQLVESGGGLVQAGGSLRLSCAASGITFSINTMGWYRQAPGKQRELVALISSIGDTYYADSVRGRFTISRDNARNTVYLQMNSLRPEDTAVYYCRRFRTAAQGTDYWGQGTQVTVSS
notes: also called VHH ID 134

- binding result [9]: no binding
B7: VHH_110 (VHH)
VHH: QVQLVESGGGSVQLGGSLRLSCAVSGLGFSALAMGWFRQAPGKERERVAAISRTGGTTYYTDSVKGRFTISRDNGKNMVYLQMNSLKPEDAAVYYCASRYTALLSTTARGYDYWGQGTQVTVSS
notes: also called VHH ID 110

- binding result [10]: no binding
B8: VHH_123 (VHH)
VHH: QVQLVESGGGLVQAGGSLRLSCAASGRTFNSYFYTMAWFRQAPGKEREFVARMNWNADSTYHADSVKGRFTISRENTVYLQMNSLEPEDTAVYYCAAKSISAPKYDYWGQGTQVTVSS
notes: also called VHH ID 123

- EC50 (read off the curve) [11]: ~6 nM
B9: VHH_118 (VHH)
VHH: EVQLVESGGGLVQPGGSLRLSCAASEFTFSNYAMSWVRQAPGKGLEWVSAINWSGGITTYADSVKGRFTISRDNAKNTLHLQMNSLKPEDTAVYYCAKGWGTTTRDTGLLSQGTLVTVSS
notes: also called VHH ID 118
